From patent publication US20190225665A1 (Stanford University, published 2019)

B4: IL-10Rβ (monomer) (receptor, human, UniProt Q08334 20-220, looked up)
chain: MVPPPENVRMNSVNFKNILQWESPAFAKGNLTFTAQYLSYRIFQDKCMNTTLTECDFSSLSKYGDHTLRVRAEFADEHSDWVNITFCPVDDTIIGPPGMQVEVLADSLHMRFLAPKIENEYETWTMKNVYNSWTYNVQYWKNGTDEKFQITPQYDFEVLRNLEPWTTYCVQVRGFLPDRNKAGEWSEPVCEQTTHDETVPS
notes: Soluble receptor expressed in Hi5 insect cells; also called IL-10 Receptor Beta; IL-10R2

How the values were obtained:
[1] = molecular target: T1, IFN-λR1 (human, UniProt Q8IU57 21-228, limits assumed); assay: SPR, equilibrium fit; wild-type IFN-λ3 binding IFN-λR1
T1 construct: Soluble receptor expressed in Hi5 insect cells; It was captured on a Biotin CAP chip for SPR and used as streptavidin tetramers or soluble protein in the yeast assays; For crystallography it was expressed in HEK293 GnTI- cells and deglycosylated with EndoF and EndoH; also called IL-28RA; IFNλ Receptor 1
T1 sequence (looked up): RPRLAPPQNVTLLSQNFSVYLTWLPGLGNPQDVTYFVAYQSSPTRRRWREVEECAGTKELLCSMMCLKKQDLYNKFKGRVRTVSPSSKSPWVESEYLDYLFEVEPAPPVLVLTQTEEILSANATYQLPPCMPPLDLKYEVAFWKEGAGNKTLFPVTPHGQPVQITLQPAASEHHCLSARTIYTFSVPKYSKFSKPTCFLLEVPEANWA
Protocol: (§1) KD values were determined by fitting to a first order equilibrium binding model.
(§2) Surface plasmon resonance. GE Biacore T100 was used to measure the KD by either kinetic (type I IFNs) or equilibrium (type III IFNs) methods. Approximately 100 RU of each of the receptors of were captured on a Biotin CAP-chip (GE) including a reference channel of an unrelated cytokine receptor (IL-2Rβ).

[2] = molecular target: B4; assay: flow cytometry of yeast displaying IFN-λ3, no IFN-λR1 present
Protocol: as §1
(§3) We used yeast surface display as a platform for engineering a higher affinity IFN-λ.

[3] = molecular target: T2, IL-10Rβ streptavidin tetramers (human, UniProt Q08334 20-220; P22629 37-163); assay: as above
T2 construct: Same receptor as m4, multimerised on streptavidin for staining of yeast; also called avidity-enhanced tetrameric form of IL-10Rβ; IL-10Rβ tetramer
T2 sequence (P22629 37-163, one chain of several): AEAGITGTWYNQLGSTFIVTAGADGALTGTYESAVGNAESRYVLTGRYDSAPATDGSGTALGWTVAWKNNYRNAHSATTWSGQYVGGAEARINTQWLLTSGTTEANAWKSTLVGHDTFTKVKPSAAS
Protocol: as §1, §3

[4] = molecular target: T1, IFN-λR1; assay: yeast surface display titration with IFN-λR1, flow cytometry (FIG. 7B legend gives KD=400 nM)
[5] = molecular target: T1, IFN-λR1; assay: SPR, equilibrium fit; H11 (carries Thr150Ala) binding IFN-λR1
Protocol: as §1, §2

[6] = molecular target: T1, IFN-λR1; assay: SPR, equilibrium fit
Protocol: as §1, §2

[7] = molecular target: T3, heterodimeric receptor composed of IL-10Rβ and IFN-λR1 (on cells) (human, UniProt Q8IU57 21-520; Q08334 20-325); assay: cell-based or functional assay
T3 sequence (looked up) 1: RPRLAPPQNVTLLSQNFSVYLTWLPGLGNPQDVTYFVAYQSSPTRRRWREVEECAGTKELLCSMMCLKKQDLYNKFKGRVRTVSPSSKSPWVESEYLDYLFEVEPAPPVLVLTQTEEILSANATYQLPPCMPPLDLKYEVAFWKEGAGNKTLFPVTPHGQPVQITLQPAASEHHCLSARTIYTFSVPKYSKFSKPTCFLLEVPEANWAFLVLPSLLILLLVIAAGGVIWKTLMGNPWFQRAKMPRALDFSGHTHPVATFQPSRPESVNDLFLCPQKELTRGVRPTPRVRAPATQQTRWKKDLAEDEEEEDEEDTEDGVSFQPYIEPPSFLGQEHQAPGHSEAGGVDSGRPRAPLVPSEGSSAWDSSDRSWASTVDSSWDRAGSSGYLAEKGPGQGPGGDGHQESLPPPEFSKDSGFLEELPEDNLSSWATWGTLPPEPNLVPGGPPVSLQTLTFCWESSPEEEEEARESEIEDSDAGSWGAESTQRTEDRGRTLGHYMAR
T3 sequence (looked up) 2: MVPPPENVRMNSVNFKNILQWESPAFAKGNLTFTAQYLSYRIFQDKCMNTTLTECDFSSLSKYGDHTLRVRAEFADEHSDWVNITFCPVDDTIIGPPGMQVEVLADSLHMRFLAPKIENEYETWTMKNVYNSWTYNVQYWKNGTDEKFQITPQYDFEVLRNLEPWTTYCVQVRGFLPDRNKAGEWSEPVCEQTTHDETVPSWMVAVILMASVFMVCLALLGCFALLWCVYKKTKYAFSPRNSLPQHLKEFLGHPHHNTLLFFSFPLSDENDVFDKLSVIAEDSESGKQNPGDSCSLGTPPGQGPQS

[8] = molecular target: B4; assay: yeast-surface titration with IL-10Rβ (affinity maturation was done with soluble IFN-λR1 bound to the displayed cytokine); on-yeast titration, H11 displayed on yeast; presence of IFN-λR1 not stated for the titration
[9] = molecular target: T4, IFNλR1/IFNAR1 receptor dimer (on Hap1 cells) (UniProt Q8IU57 21-520; P17181 28-557, limits assumed); assay: cell-based or functional assay
T4 sequence (looked up) 1: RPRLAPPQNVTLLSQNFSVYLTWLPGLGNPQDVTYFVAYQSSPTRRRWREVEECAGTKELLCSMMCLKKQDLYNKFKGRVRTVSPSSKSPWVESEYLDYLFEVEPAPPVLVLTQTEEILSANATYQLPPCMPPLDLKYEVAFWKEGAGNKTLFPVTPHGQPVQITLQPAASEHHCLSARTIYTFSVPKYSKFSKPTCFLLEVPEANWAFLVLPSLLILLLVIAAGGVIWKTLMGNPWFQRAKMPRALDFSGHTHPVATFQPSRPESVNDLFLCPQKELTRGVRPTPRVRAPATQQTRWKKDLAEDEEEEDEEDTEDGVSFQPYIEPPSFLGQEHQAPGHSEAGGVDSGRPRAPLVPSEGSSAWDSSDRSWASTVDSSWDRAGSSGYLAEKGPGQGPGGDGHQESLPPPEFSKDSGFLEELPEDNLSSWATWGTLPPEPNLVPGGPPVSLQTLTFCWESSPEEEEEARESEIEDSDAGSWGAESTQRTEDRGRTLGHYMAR
T4 sequence (looked up) 2: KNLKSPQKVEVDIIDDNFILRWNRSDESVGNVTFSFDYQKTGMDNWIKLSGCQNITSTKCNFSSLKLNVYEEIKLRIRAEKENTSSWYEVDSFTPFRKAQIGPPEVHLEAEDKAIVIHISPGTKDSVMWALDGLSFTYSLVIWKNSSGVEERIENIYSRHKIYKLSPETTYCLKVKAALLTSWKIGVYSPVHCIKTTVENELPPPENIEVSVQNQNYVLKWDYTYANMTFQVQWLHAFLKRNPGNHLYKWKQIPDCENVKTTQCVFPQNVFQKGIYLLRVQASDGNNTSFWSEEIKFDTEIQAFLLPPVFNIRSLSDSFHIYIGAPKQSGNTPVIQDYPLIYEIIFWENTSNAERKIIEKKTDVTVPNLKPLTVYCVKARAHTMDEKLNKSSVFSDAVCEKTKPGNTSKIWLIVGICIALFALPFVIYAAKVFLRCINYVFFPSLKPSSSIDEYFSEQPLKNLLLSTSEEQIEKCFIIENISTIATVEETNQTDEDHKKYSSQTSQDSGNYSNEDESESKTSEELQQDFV

[10] = molecular target: T5, wild-type IFN-λ3/IFN-λR1 binary complex (human, UniProt Q8IU57 21-228, limits assumed); assay: surface plasmon resonance, equilibrium fit; binary complex on the sensor chip, IL-10Rβ as analyte up to 100 uM
T5 construct: Complex of m1 and m3; In SPR it was the immobilized binary complex; also called IFN-λ/IFN-λR1 binary complex; wild-type IFN-λR1/IFN-λ3
T5 sequence 1: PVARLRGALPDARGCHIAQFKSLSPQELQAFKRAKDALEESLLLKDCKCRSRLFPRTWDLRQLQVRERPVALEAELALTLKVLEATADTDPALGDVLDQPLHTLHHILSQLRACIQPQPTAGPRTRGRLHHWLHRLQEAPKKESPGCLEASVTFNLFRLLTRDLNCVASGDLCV
T5 sequence 2: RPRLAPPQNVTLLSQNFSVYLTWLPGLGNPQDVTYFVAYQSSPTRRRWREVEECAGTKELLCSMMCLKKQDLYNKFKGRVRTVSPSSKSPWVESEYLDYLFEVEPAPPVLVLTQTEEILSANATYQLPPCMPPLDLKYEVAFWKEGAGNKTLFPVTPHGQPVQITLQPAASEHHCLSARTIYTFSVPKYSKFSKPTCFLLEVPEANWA
Protocol: as §1, §2

[11] = molecular target: T6, H11/IFN-λR1 binary complex (human, UniProt Q8IU57 21-228, limits assumed); assay: SPR, equilibrium fit, immobilized H11/IFN-λR1 binary complex; SPR; IL-10Rβ over the immobilized H11/IFN-λR1 binary complex
T6 construct: Complex of m2 and m3, immobilized for SPR; also called IFN-λ3 H11/IFN-λR1 binary complex; H11-containing binary complex
T6 sequence 1: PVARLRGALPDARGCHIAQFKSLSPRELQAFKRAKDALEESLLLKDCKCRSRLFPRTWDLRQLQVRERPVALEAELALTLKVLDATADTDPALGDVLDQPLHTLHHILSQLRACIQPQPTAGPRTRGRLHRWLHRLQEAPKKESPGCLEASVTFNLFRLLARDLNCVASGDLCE
T6 sequence 2: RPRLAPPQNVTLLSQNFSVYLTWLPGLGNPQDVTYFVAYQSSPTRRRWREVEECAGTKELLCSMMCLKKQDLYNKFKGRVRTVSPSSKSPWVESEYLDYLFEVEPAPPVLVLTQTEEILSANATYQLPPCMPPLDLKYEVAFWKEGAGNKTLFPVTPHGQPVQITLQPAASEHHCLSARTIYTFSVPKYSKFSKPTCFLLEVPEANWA
Protocol: as §1, §2

[12] = molecular target: T6, H11/IFN-λR1 binary complex; assay: SPR, equilibrium fit, immobilized binary complexes
Protocol: as §1, §2

B1: wild-type IFN-λ3 (ligand)
chain: PVARLRGALPDARGCHIAQFKSLSPQELQAFKRAKDALEESLLLKDCKCRSRLFPRTWDLRQLQVRERPVALEAELALTLKVLEATADTDPALGDVLDQPLHTLHHILSQLRACIQPQPTAGPRTRGRLHHWLHRLQEAPKKESPGCLEASVTFNLFRLLTRDLNCVASGDLCV
notes: For SPR it was expressed in Hi5 insect cells; also called IL-28B; IFN-λ3 wt
For B1, the Kd [1] was 850 nM, the binding result [2] was “no binding” and the binding result [3] was “no binding”. The Kd [4] was about 400 nM.

B2: IFN-λ3 H11 (ligand)
chain: PVARLRGALPDARGCHIAQFKSLSPRELQAFKRAKDALEESLLLKDCKCRSRLFPRTWDLRQLQVRERPVALEAELALTLKVLDATADTDPALGDVLDQPLHTLHHILSQLRACIQPQPTAGPRTRGRLHRWLHRLQEAPKKESPGCLEASVTFNLFRLLARDLNCVASGDLCE
notes: also called engineered IFN-λ3 H11
For B2, the Kd [5] was 150 nM, the “fold higher affinity against wild-type IFN-λ3” value [6] was about 5 fold and the “EC50 for phospho-Stat1 on Hap1 cells, fold improvement over wild-type IFN-λ3” value [7] was 100 fold. For the same binder, the “anti-viral potency on Huh7.5 cells infected with HCV, fold over wild-type IFN-λ3” value [7] was 12 fold and the Kd [8] was 200 nM.

B3: Synthekine 2 (designed binder)
chain: ARGCHIAQFKSLSPAELQAFKRAKDALEESLLLKDCKCRSRLFPRTWDLRQLQVRERPVALEAELALTLKVLEATADTDPALGDVLDAPLATLHHILSQLRACIQPQPTAGPRTRGRLHRWLHRLQEAPKKESPGCLEASVTFNLFRLLARDLNCVASGDLCEGSGSGLGCDLPQNHGLLSANTLVLLHQMRRISPFLCAKDARDFRFPQEMVKGSQLQKAHVMSVLHEMLQQIFSLFHTERSSAAWNMTLLDQLHTGLHQQLQHLETCLLQVVGEGESAGAISSPALTLRRYFQGIRVYLKEKKYSDCAWEVVRMEIMASLFLSTNMQERLRSKDRDLGSSAAAHHHHHH
B3 was tested, and the “Emax of phospho-STAT1 activation in Hap1 cells” value [9] was 2 fold of the signal induced by type III IFNs.

With B4 the Kd [10] was 16000 nM, the Kd [11] was 560 nM and the “fold increase in IL-10Rβ affinity against the wild-type IFN-λ3/IFN-λR1 binary complex” value [12] was 30 fold.
